{"source": "the Immune Epitope Database (IEDB)", "assay_in_all_cases": "IEDB peptide-MHC binding, purified MHC/competitive/radioactivity; filed as Kd, often an IC50 or EC50 that approximates it; ≥ and ≤ were set here for values at or beyond the usual limits of such assays", "conditions_in_all_cases": "source organism: Homo sapiens", "key": {"[1]": {"biological_target": "HLA-B*38:01"}, "[2]": {"biological_target": "HLA-B*39:01"}, "[3]": {"biological_target": "HLA-B*39:06"}}}
{"sequence": "NRVMLPKAA", "values": [{"measurement": "Kd", "setting": "[1]", "value": "≥ 50000", "unit": "nM"}, {"measurement": "Kd", "setting": "[2]", "value": 35, "unit": "nM"}, {"measurement": "Kd", "setting": "[3]", "value": 14, "unit": "nM"}]}
{"sequence": "MRLLPLLA", "values": [{"measurement": "Kd", "setting": "[1]", "value": "≥ 44500", "unit": "nM"}, {"measurement": "Kd", "setting": "[2]", "value": 62, "unit": "nM"}, {"measurement": "Kd", "setting": "[3]", "value": 41, "unit": "nM"}]}
{"sequence": "SHVAVENAL", "values": [{"measurement": "Kd", "setting": "[1]", "value": 321, "unit": "nM"}, {"measurement": "Kd", "setting": "[2]", "value": 11, "unit": "nM"}, {"measurement": "Kd", "setting": "[3]", "value": 696, "unit": "nM"}]}
{"sequence": "FRLLCALTSL", "values": [{"measurement": "Kd", "setting": "[1]", "value": 2760, "unit": "nM"}, {"measurement": "Kd", "setting": "[2]", "value": 290, "unit": "nM"}, {"measurement": "Kd", "setting": "[3]", "value": 7.4, "unit": "nM"}]}
{"sequence": "FLFLFAVG", "values": [{"measurement": "Kd", "setting": "[1]", "value": "≥ 50000", "unit": "nM"}, {"measurement": "Kd", "setting": "[2]", "value": 17900, "unit": "nM"}, {"measurement": "Kd", "setting": "[3]", "value": 405, "unit": "nM"}]}
{"sequence": "NRVMLPKA", "values": [{"measurement": "Kd", "setting": "[2]", "value": 85, "unit": "nM"}, {"measurement": "Kd", "setting": "[3]", "value": 41, "unit": "nM"}]}
{"sequence": "NHSSPCLEQF", "values": [{"measurement": "Kd", "setting": "[2]", "value": "≥ 25700", "unit": "nM"}, {"measurement": "Kd", "setting": "[3]", "value": "≥ 50000", "unit": "nM"}]}
{"sequence": "TNLFLFLFAV", "values": [{"measurement": "Kd", "setting": "[1]", "value": 6690, "unit": "nM"}, {"measurement": "Kd", "setting": "[2]", "value": 3950, "unit": "nM"}, {"measurement": "Kd", "setting": "[3]", "value": 354, "unit": "nM"}]}
{"sequence": "SHLVEALYL", "values": [{"measurement": "Kd", "setting": "[1]", "value": 10, "unit": "nM"}, {"measurement": "Kd", "setting": "[2]", "value": 5250, "unit": "nM"}, {"measurement": "Kd", "setting": "[3]", "value": "≥ 35600", "unit": "nM"}]}
{"sequence": "SASIPLTVVA", "values": [{"measurement": "Kd", "setting": "[1]", "value": "≥ 50000", "unit": "nM"}, {"measurement": "Kd", "setting": "[2]", "value": "≥ 30900", "unit": "nM"}, {"measurement": "Kd", "setting": "[3]", "value": 310, "unit": "nM"}]}
{"sequence": "YHFLQIPT", "values": [{"measurement": "Kd", "setting": "[1]", "value": 9750, "unit": "nM"}, {"measurement": "Kd", "setting": "[2]", "value": 660, "unit": "nM"}, {"measurement": "Kd", "setting": "[3]", "value": 151, "unit": "nM"}]}
{"sequence": "THFPHQVIL", "values": [{"measurement": "Kd", "setting": "[1]", "value": 142, "unit": "nM"}, {"measurement": "Kd", "setting": "[2]", "value": 73, "unit": "nM"}, {"measurement": "Kd", "setting": "[3]", "value": 2600, "unit": "nM"}]}
{"sequence": "WMRLLPLLA", "values": [{"measurement": "Kd", "setting": "[1]", "value": "≥ 50000", "unit": "nM"}, {"measurement": "Kd", "setting": "[2]", "value": 865, "unit": "nM"}, {"measurement": "Kd", "setting": "[3]", "value": 155, "unit": "nM"}]}
